Laboratory results as given in publication PMC12959773 (Protein & Cell, 2025).

B1: SLC7A13-SLC3A1 complex (Homo sapiens) (protein)
chain: MDRGEKIQLKRVFGYWWGTSFLLINIIGAGIFVSPKGVLAYSCMNVGVSLCVWAGCAILAMTSTLCSAEISISFPCSGAQYYFLKRYFGSTVAFLNLWTSLFLGSGVVAGQALLLAEYSIQPFFPSCSVPKLPKKCLALAMLWIVGILTSRGVKEVTWLQIASSVLKVSILSFISLTGVVFLIRGKKENVERFQNAFDAELPDISHLIQAIFQGYFAYSGGACFTLIAGELKKPRTTIPKCIFTALPLVTVVYLLVNISYLTVLTPREILSSDAVAITWADRAFPSLAWIMPFAISTSLFSNLLISIFKSSRPIYLASQEGQLPLLFNTLNSHSSPFTAVLLLVTLGSLAIILTSLIDLINYIFFTGSLWSILLMIGILRRRYQEPNLSIPYKVFLSFPLATIVIDVGLVVIPLVKSPNVHYVYVLLLVLSGLLFYIPLIHFKIRLAWFEKMTCYLQLLFNICLPDVSEE
notes: heterodimeric light/heavy chain transporter, dimer of heterodimers; ectopically expressed in HEK293T / HEK293 cells (Expi293 for cryo-EM); with Amino acid transporter heavy chain SLC3A1
B2: SLC7A9-SLC3A1 complex (Homo sapiens) (protein)
chain: MGDTGLRKRREDEKSIQSQEPKTTSLQKELGLISGISIIVGTIIGSGIFVSPKSVLSNTEAVGPCLIIWAACGVLATLGALCFAELGTMITKSGGEYPYLMEAYGPIPAYLFSWASLIVIKPTSFAIICLSFSEYVCAPFYVGCKPPQIVVKCLAAAAILFISTVNSLSVRLGSYVQNIFTAAKLVIVAIIIISGLVLLAQGNTKNFDNSFEGAQLSVGAISLAFYNGLWAYDGWNQLNYITEELRNPYRNLPLAIIIGIPLVTACYILMNVSYFTVMTATELLQSQAVAVTFGDRVLYPASWIVPLFVAFSTIGAANGTCFTAGRLIYVAGREGHMLKVLSYISVRRLTPAPAIIFYGIIATIYIIPGDINSLVNYFSFAAWLFYGLTILGLIVMRFTRKELERPIKVPVVIPVLMTLISVFLVLAPIISKPTWEYLYCVLFILSGLLFYFLFVHYKFGWAQKISKPITMHLQMLMEVVPPEEDPE
B3: SLC7A11-SLC3A2 complex (Homo sapiens) (protein)
chain: MVRKPVVSTISKGGYLQGNVNGRLPSLGNKEPPGQEKVQLKRKVTLLRGVSIIIGTIIGAGIFISPKGVLQNTGSVGMSLTIWTVCGVLSLFGALSYAELGTTIKKSGGHYTYILEVFGPLPAFVRVWVELLIIRPAATAVISLAFGRYILEPFFIQCEIPELAIKLITAVGITVVMVLNSMSVSWSARIQIFLTFCKLTAILIIIVPGVMQLIKGQTQNFKDAFSGRDSSITRLPLAFYYGMYAYAGWFYLNFVTEEVENPEKTIPLAICISMAIVTIGYVLTNVAYFTTINAEELLLSNAVAVTFSERLLGNFSLAVPIFVALSCFGSMNGGVFAVSRLFYVASREGHLPEILSMIHVRKHTPLPAVIVLHPLTMIMLFSGDLDSLLNFLSFARWLFIGLAVAGLIYLRYKCPDMHRPFKVPLFIPALFSFTCLFMVALSLYSDPFSTGIGFVITLTGVPAYYLFIIWDKKPRWFRIMSEKITRTLQIILEVVPEEDKL
B4: SLC3A1 (natural protein, human)
chain: AEDKSKRDSIEMSMKGCQTNNGFVHNEDILEQTPDPGSSTDNLKHSTRGILGSQEPDFKGVQPYAGMPKEVLFQFSGQARYRIPREILFWLTVASVLVLIAATIAIIALSPKCLDWWQEGPMYQIYPRSFKDSNKDGNGDLKGIQDKLDYITALNIKTVWITSFYKSSLKDFRYGVEDFREVDPIFGTMEDFENLVAAIHDKGLKLIIDFIPNHTSDKHIWFQLSRTRTGKYTDYYIWHDCTHENGKTIPPNNWLSVYGNSSWHFDEVRNQCYFHQFMKEQPDLNFRNPDVQEEIKEILRFWLTKGVDGFSLDAVKFLLEAKHLRDEIQVNKTQIPDTVTQYSELYHDFTTTQVGMHDIVRSFRQTMDQYSTEPGRYRFMGTEAYAESIDRTVMYYGLPFIQEADFPFNNYLSMLDTVSGNSVYEVITSWMENMPEGKWPNWMIGGPDSSRLTSRLGNQYVNVMNMLLFTLPGTPITYYGEEIGMGNIVAANLNESYDINTLRSKSPMQWDNSSNAGFSEASNTWLPTNSDYHTVNVDVQKTQPRSALKLYQDLSLLHANELLLNRGWFCHLRNDSHYVVYTRELDGIDRIFIVVLNFGESTLLNLHNMISGLPAKMRIRLSTNSADKGSKVDTSGIFLDKGEGLIFEHNTKNLLHRQTAFRDRCFVSNRACYSSVLNILYTSC
modifications: five glycosylation sites in the extracellular domain
notes: SLC3A1 (rBAT), human; heavy chain subunit: small N-terminal cytoplasmic region, a single TM and a large extracellular domain; Two copies stand in the solved hetero-tetramer; also called rBAT; heavy chain of the SLC7A13-SLC3A1 cystine transporter

Assays:
[1] = substrate: N[C@@H](CSSC[C@H](N)C(=O)O)C(=O)O; assay: cells, lysate or membranes; assay type: cell-based, Homo sapiens; details: cellular transport (Vmax given per cell)
[2] = substrate: N[C@@H](CSSC[C@H](N)C(=O)O)C(=O)O; assay: cells, lysate or membranes; details: cellular transport (Vmax given per cell)
[3] = molecular target: the molecule itself; assay: cryo-EM structure; apo state; SLC7A13 and SLC3A1 co-expressed in Expi293 cells, complex purified by affinity purification and SEC; overall resolution 2.64 Å

Protein	Km [2] [µM]	also measured
B1	–	Km [1]: 126.5 ± 33.25 µM
B2	276.9 ± 107.6	–
B3	67.57 ± 21.95	–
B4	–	stoichiometry N [3]: 2
